Patent US8372810B2, “Anti-tumor drug, medicament, composition, and use thereof” (Gene Signal International SA, priority 2007, dated 2013)
Entries after “also recorded” stand apart in the source; their conditions may differ.

How the values were obtained:
[1] = system: fibroblast cell line MRC5; assay: Proliferation of other cell lines: MRC5; format: cell-based; conditions: even at high concentration
[2] = system: CHO; assay: Proliferation of other cell lines: CHO; format: cell-based; conditions: even at high concentration
[3] = system: tumor cell line NCI-H460; assay: Proliferation of other cell lines: NCI-H460; format: cell-based, human; conditions: even at high concentration
[4] = system: CALU-6 tumors; assay: CALU-6 non-small cell lung cancer xenograft in Swiss Nude mice, tumor growth; format: in vivo
Method: CALU-6 cells were cultured as adherent cells in complete EMEM medium (Ref. CM1MEM18-01, batch No. 462502, Eurobio, France) 10% fetal calf serum (FCS; Ref. CVFSVF00-01, batch No. 513021, Eurobio, France) under a 37° C., 5% CO2 humidified atmosphere. They were amplified in 75 cm^2-flasks to reach 90×10^6 cells.
At D0, CALU-6 cells (human lung carcinoma) were collected from 75 cm^2-flasks by removing the medium and adding 3 ml of trypsine-EDTA (Ref. CEZTDA00-0U, batch No. 633920, Eurobio, France). After 5 min of incubation at 37° C., cells had detached from the plastic and the enzymatic reaction was stopped by adding 3 ml of EMEM medium containing 10% fetal calf serum. Cells were then centrifuged at 700 g for 5 min at room temperature. They were resuspended in serum-free EMEM culture medium. Cells were counted and viability assessment by Trypan Blue exclusion (Ref. CSTCOL03-OU, batch No. 434511, Eurobio, France). The number of viable CALU-6 cells was >99%. The number of cells was then adjusted to 25×10^6 cells/ml in serum-free medium.
CALU-6 cells 5×10^6 cells/mouse in 200 μl of serum-free medium) were then implanted subcutaneously in the right flank of each mouse.
At D12 post-implantation of the CALU-6 cells, the thirty mice were randomized into six groups of 5 mice. Tumor volumes had reached 228 to 468 mm^3 and mean tumor volumes were not statistically different between groups after randomization.
Mean tumor volumes (MTV), mean relative tumor volume (MRTV) and tumor growth inhibition (T/C) were calculated as for example 7.

[5] = Body weight and toxicity monitoring of mice bearing CALU-6 tumors; conditions: CALU-6 bearing Nude mice, 497C-T2 10 mg/kg IP
Method: Injections in groups 1, 2, 3 and 4 were performed according to the schedules Q2DX8, i.e. 1 quantity every two days, eight times.
CDDP was resuspended in sterile physiological serum at a concentration of 0.5 mg/mL and injected IP at a concentration of 5 mg/kg at a volume of 10 mL/kg, according to the treatment schedule Q2DX8.
Ketamine/Xylazine (80 mg/kg-12 mg/kg; Ref. K-113, Sigma, France) was used to anaesthetize the animals before sacrifice by cervical dislocation.

[6] = system: tumor cell line Calu-6; assay: Proliferation of other cell lines: Calu-6; format: cell-based, human; conditions: even at high concentration
[7] = IP Q2DX8, CDDP 5 mg/kg (G2), 497C-T2 10 mg/kg (G3), 497C-T2 10 mg/kg + CDDP 5 mg/kg (G4)

B1: 497C-T2: entire LEL domain of protein 497C, SEQ ID NO:3 (112 amino acids); as produced SEQ ID NO:8, with N-terminal His-Tag and C-terminal tail, 24 kD (protein, listed as Homo sapiens)
chain: MHHHHHHSSGLVPRGSGMKETAAAKFERQHMDSPDLGTDDDDKISGFVFRHEIKDTFLRTYTDAMQTYNGNDERSRAVDHVQRSLSCCGVQNYTNWSTSPYFLEHGIPPSCCMNETDCNPQDLHNLTVAATKVNQKGCYDLVTSFMETNMGIIAGDRASPQPWRYRIRILAPSTSLRPHSSTTTTTTXIRLLTKPERKLSWLLPPLSNN
modifications: X: residue not identified in the source
- anti-proliferative effect [1]: without any detectable anti-proliferative effect
- anti-proliferative effect [2]: without any detectable anti-proliferative effect
- anti-proliferative effect [3]: without any detectable anti-proliferative effect
- anti-tumoral activity ([4]; CALU-6, monotherapy (G3) or combined with CDDP (G4)): slight anti-tumoral activity
- Growth inhibition based on T/C ratio, T/C ratio (%) D14 [4, 7]: 10%
- Growth inhibition based on T/C ratio, T/C ratio (%) D16 [4, 7]: 33%
- Growth inhibition based on T/C ratio, T/C ratio (%) D18 [4, 7]: 7%
- Growth inhibition based on T/C ratio, T/C ratio (%) D20 [4, 7]: 13%
- Growth inhibition based on T/C ratio, T/C ratio (%) D22 [4, 7]: 26%
- Growth inhibition based on T/C ratio, T/C ratio (%) D24 [4, 7]: 24%
- Growth inhibition based on T/C ratio, T/C ratio (%) D26 [4, 7]: 39%
- Growth inhibition based on T/C ratio, T/C ratio (%) D28 [4, 7]: 27%
- MRTV D14 [4, 7]: 1.64
- MRTV D16 [4, 7]: 2.11
- MRTV D18 [4, 7]: 2.34
- MRTV D20 [4, 7]: 3.22
- MRTV D22 [4, 7]: 3.09
- MRTV D24 [4, 7]: 4.31
- MRTV D26 [4, 7]: 4.60
- MRTV D28 [4, 7]: 6.02
- MRTV D12 ([4]; reference day, IP Q2DX8, CDDP 5 mg/kg (G2), 497C-T2 10 mg/kg (G3), 497C-T2 10 mg/kg + CDDP 5 mg/kg (G4)): 1
- toxicity during the course of the treatment [5]: No toxicity was observed; also recorded: not toxic
- anti-proliferative effect [6]: without any detectable anti-proliferative effect
